Reference: patent publication EP4755449A2 (CHUGAI SEIYAKU KABUSHIKI KAISHA, dated 2026)
Read-outs that look alike come from different tables or passages of the source.

Experiments:
mouse latent myostatin = target: T1, mouse latent myostatin (mouse, UniProt O08689 26-267; O08689 268-376); assay: SPR 37C pH7.4
T1 sequence 1: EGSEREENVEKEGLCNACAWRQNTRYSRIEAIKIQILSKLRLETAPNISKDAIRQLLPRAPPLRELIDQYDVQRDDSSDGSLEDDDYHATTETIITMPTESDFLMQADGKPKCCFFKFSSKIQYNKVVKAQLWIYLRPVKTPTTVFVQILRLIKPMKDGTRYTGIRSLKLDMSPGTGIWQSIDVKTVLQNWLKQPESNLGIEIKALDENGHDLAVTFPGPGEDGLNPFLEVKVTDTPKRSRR
T1 sequence 2: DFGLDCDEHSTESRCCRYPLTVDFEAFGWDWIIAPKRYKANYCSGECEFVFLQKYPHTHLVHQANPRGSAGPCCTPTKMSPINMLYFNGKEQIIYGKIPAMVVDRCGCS

[1] = target: T2, cynomolgus monkey latent myostatin (cynomolgus monkey, UniProt Q95J86 25-266; Q95J86 267-375, limits assumed); assay: SPR 37C pH7.4
T2 construct: also called cyno latent myostatin
T2 sequence 1: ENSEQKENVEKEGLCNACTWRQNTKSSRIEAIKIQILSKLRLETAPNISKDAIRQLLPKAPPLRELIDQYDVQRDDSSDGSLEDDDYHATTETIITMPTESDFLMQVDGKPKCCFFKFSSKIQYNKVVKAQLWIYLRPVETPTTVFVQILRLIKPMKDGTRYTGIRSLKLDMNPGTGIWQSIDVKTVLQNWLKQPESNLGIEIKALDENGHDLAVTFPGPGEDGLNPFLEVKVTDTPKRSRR
T2 sequence 2: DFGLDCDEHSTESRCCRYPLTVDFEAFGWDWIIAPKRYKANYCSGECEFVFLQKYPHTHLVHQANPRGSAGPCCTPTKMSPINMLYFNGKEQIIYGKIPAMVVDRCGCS

human latent myostatin [2] = target: T3, human latent myostatin (human, UniProt O14793 25-266; O14793 267-375); assay: SPR 37C pH7.4
T3 construct: non-covalent complex of two propeptides and the mature homodimer; also called human myostatin latent form
T3 sequence 1: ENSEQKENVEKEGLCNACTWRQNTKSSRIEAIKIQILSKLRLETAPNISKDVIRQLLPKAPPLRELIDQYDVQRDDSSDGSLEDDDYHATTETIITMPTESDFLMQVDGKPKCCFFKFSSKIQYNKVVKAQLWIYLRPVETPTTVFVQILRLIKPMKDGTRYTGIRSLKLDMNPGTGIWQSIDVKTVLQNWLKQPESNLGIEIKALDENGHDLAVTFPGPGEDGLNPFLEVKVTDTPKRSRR
T3 sequence 2: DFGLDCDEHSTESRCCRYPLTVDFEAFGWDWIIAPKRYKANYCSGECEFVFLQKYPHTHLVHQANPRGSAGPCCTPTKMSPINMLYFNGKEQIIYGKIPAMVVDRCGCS

human latent myostatin [3] = target: T3, human latent myostatin; assay: SPR 37C pH7.4; remark: listed apart in the source
mature myostatin = target: T4, mature myostatin (human (mature form 100% identical in …, UniProt O08689 268-376 (mouse entry))); assay: ELISA, biotinylated antigen on streptavidin plate
T4 construct: biotinylated in the ELISA; also called myostatin mature form; active myostatin
T4 sequence: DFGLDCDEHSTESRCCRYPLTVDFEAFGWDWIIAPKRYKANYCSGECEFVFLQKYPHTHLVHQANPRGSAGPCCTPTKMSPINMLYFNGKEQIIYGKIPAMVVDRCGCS

[4] = target: T5, Human GDF11 with Flag-tag on N-terminus (human, UniProt O95390 11-407); assay: ELISA, biotinylated antigen on streptavidin plate
T5 construct: processing of the expressed protein not described; also called Flag-hGDF11; human latent GDF11
T5 sequence: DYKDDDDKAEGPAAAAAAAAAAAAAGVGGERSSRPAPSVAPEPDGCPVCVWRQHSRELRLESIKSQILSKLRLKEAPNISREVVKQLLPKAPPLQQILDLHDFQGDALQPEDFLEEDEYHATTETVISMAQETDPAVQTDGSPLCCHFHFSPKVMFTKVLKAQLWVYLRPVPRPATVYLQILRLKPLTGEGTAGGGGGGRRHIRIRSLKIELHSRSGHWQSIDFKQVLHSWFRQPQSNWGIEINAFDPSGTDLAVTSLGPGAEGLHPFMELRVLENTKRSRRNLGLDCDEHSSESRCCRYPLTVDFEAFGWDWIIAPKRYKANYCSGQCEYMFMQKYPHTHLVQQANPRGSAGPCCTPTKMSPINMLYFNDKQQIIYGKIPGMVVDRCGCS

Kd (mouse latent myostatin): 0.0579 nM
koff (mouse latent myostatin): 8.16e-05 s⁻¹
kon (mouse latent myostatin): 1.41e+06 M⁻¹ s⁻¹
Kd [1]: 0.0717 nM
koff [1]: 7.79e-05 s⁻¹
kon [1]: 1.09e+06 M⁻¹ s⁻¹
Kd (human latent myostatin [2]): 0.0766 nM
koff (human latent myostatin [2]): 8.65e-05 s⁻¹
kon (human latent myostatin [2]): 1.13e+06 M⁻¹ s⁻¹
Kd (human latent myostatin [3]): 0.0766 nM
koff (human latent myostatin [3]): 8.65e-05 s⁻¹
kon (human latent myostatin [3]): 1.13e+06 M⁻¹ s⁻¹
binding result (mature myostatin): no binding
binding result [4]: no binding
B1: MS_MST1032Ha-G1m/MST1032La-k0MC (antibody, human IgG1, kappa, V domains shown)
VH: QSLEESGGRLVTPGGSLTVTCRVSGIDLSSYDISWVRQAPGKGLEWIGIISYAGSTYYASWAKGRFTISKTSTTVDLKMTSLTTEDTATYFCARGVPAYSTGGDLWGPGTLVTVSS
VL: AQVLTQTASSVSAAVGGTVTINCQSSQSVYDNNWLSWFQQKPGQPPKLLIYWASTLASGVPSRFKGSGSGTQFTLTISDLECDDAATYYCAGGYGGGLYAFGGGTKVEIKR
notes: rabbit/human chimeric; also called MST1032-G1m
